Data from article PMC9569855 (2022).

Biological target: SARS-CoV-2 wild type RBD (319-541aa) (SARS-CoV-2, UniProt P0DTC2 319-541)
Assay: SPR

B1: Bamlanivimab (antibody, V domains shown)
VH: QVQLVQSGAEVKKPGSSVKVSCKASGGTFSNYAISWVRQAPGQGLEWMGRIIPILGIANYAQKFQGRVTITADKSTSTAYMELSSLRSEDTAVYYCARGYYEARHYYYYYAMDVWGQGTAVTVSS
VL: not shown
B1 showed a koff of 0.0014 s⁻¹.
